Tests used:
[1] = molecular target: human FcRn-His-GST (FcRn fused to a His-tag and glutathione S transferase) (human) (UniProt P55899); test: AlphaScreen competition vs wild-type Fc, pH 6.0 (FIG. 13)
[2] = molecular target: human FcRn-His-GST (FcRn fused to a His-tag and glutathione S transferase) (human) (UniProt P55899); test: AlphaScreen competition, pH 6.0 (FIG. 13)

Row | fold increase in FcRn affinity (vs wild type) [1] | percent of the binding affinity of the wild type [2] | Substance
1 | 2 fold | – | IgG1 Fc variant N286# (deletion of N286; taken as in the anti-HER2 antibody trastuzumab)
2 | – | 1.1% | IgG1 Fc variant ^254N (Asn inserted after position 254; taken as in the anti-HER2 antibody trastuzumab)
